T1: GST-C-4 (peptide C-4 expressed as glutathione S-transferase fusion protein)
T1 chain: CVAYCIEHHCWTC

T2: GST-B-2 (peptide B-2 expressed as glutathione S-transferase fusion protein)
T2 chain: CVFAHNYDYLVC

B1: Prostate specific antigen (PSA), purified from human seminal fluid (enzyme)
chain: not shown
notes: mature; Mostly captured on wells by MAb 5E4 (IFMA) or on the chip by MAb H117 (SPR); in solution in enzyme assays; also called free PSA; active PSA
B2: GST-A-1 (peptide A-1 expressed as glutathione S-transferase fusion protein) (other)
chain: CVFTSDYAFC

For test [1], the target named is T1, GST-C-4 (peptide C-4 expressed as …). Nature of the test: competition IFMA: GST-peptide (167 nM) preincubated with PSA in solution, then binding to PSA captured by MAb 5E4. Here is the method: (§1) Various amounts of GST-peptide or wild type GST were added to wells containing captured PSA in 200 μL of assay buffer and incubated for 1 h. To test the effect of Zn²⁺ on the binding between GST-peptide and PSA, various concentrations of Zn²⁺ (1-200 μM) were added to the buffer in the incubation step of GST-peptide and PSA. […] After incubation for 1 h the wells were washed and Eu³⁺-labeled anti GST antibody was added. After further incubation and washing the bound fluorescence was measured as described above. When assessing the binding of the GST-peptides to other proteinases, including chymotrypsin, cathepsin G, trypsin, and kallikrein, these proteinases were captured by their specific antibodies coated to the microtitration well. Recombinant hK2 was captured by MAb 5E4, which is known to bind hK2 (24). For assessing the binding of the GST-peptides with complexes of PSA, including PSA-ACT and PSA-α1-protease inhibitor (PSA-API) (28), the complexes were captured by antibodies against ACT and API, respectively. After capturing the various proteinases or PSA complexes, GST-peptide was added and binding was monitored as described above for the GST-peptide IFMA.
(§2) In this connection, we refer also to FIG. 3. GST-C-4 was preincubated with increasing concentrations of PSA in solution for 1 h. Then the samples of the mixtures were added to wells in which PSA had been captured by anti PSA MAb. The binding was measured by IFMA. Data represent mean values from duplicate wells ±SE. The corresponding values for the peptides A-1 (SEQ ID NO 1) and B-2 (SEQ ID NO 6) were 3.3 nM and 1 nM, respectively (data not shown). Preincubation of the GST-peptides with an excess of free PSA inhibited binding to the solid phase PSA. The binding of peptide C-4 (SEQ ID NO 11) to captured PSA was reduced by 50% at a PSA concentration of 0.7 nM.

Test [2] deals with B2. Described as above. Here is the method: as §1, §2
In test [3] the target is T2, GST-B-2 (peptide B-2 expressed as …). The test is described as above. As to the method: as §1, §2
Test [4] deals with B1. Nature of the test: SPR, PSA captured by MAb H117, 30 µM Zn2+. For orientation: In SPR one partner is held on a chip, and binding of the other changes the refractive index at the surface.
The target in test [5] is B1. Nature of the test: SPR, PSA captured by MAb H117, 1 µM Zn2+, single fit, 3.4 µM peptide.
Test [6] addresses B1. Nature of the test: GST-peptide IFMA, PSA captured by MAb 5E4, Eu-labelled anti GST tracer.
In test [7] the target is B1. Nature of the test: cell-based or functional assay.
Test [8] concerns the target B1. Nature of the test: SPR, PSA captured by MAb H117, 10 µM Zn2+, single fit, 3.4 µM peptide.
For test [9], the target named is B1. Nature of the test: SPR, PSA captured by MAb H117, 0 µM Zn2+, average of 3 fits (3.4-8.5 µM analyte).
Test [10] has as its target B1. Nature of the test: SPR, PSA captured by MAb H117, 10 µM Zn2+.
In test [11] the target is B1. Nature of the test: cell-based or functional assay. This is another data set of the same source.
For test [12], the target named is B1. Nature of the test: SPR, PSA captured by MAb H117, 1 µM Zn2+.
Test [13] addresses B1. Nature of the test: SPR, GST-peptide injected over PSA captured by MAb H117; average of 3 concentrations.
Test [14] concerns the target B1. Nature of the test: SPR, PSA captured by MAb H117, 30 µM Zn2+, single fit, 3.4 µM peptide.

As usually defined, the IC50 is the point on the concentration scale where inhibition reaches its midpoint. Low values mean higher potency, high ones lower potency. Take B1: the IC50 in test [1] was determined as 0.7 nM; in [2], 3.3 nM; in test [3], 1 nM.

What is called Kd is the equilibrium constant for the complex coming apart. As usually defined, the koff is a measure of how fast the partners let go of each other. A low value points to a long-lived complex. The kon is the second-order rate constant of association. Read a low kon as slow association. B2: the “increase (fold) of affinity against 0 µM Zn2+” value in test [4] came to 7.7 fold; in test [10] it was 5.9 fold; in [12], 3 fold. Besides, the Kd came out at 2600 nM in test [5]; 1400 nM in test [8]; 7800 nM in test [9]; 7800 nM in [13]; 1000 nM in test [14]. For the same molecule, the dissociation rate constant (koff) in [5] came out at 0.0047 s⁻¹; in test [8], 0.0016 s⁻¹; in test [9], 0.08 s⁻¹; in test [13] it was 0.08 s⁻¹; in test [14] it was 0.002 s⁻¹. For the same molecule, the kon in test [5] was found to be 1800 M⁻¹ s⁻¹; in [8], 1200 M⁻¹ s⁻¹; in test [9], 10300 M⁻¹ s⁻¹; in [13] it was 10300 M⁻¹ s⁻¹; in [14], 1900 M⁻¹ s⁻¹. Also, in [6], the “Maximal binding (CPS)” value amounted to 219000 CPS. For the same molecule, the “minimum peptide concentration affecting the activity” value in test [7] was 300 nM. Further, in [11], the “50% stimulation” value came to 2.2 µM.

These data come from US20040106557A1 (LICENTIA, published 2004).
